Data set [1] has as its target T1, HY5 (UniProt O24646 1-168).
T1 sequence: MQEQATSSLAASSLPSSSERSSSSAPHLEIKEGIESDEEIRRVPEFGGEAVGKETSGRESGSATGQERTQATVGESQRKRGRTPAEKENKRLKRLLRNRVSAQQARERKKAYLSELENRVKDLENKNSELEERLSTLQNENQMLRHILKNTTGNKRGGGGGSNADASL
Briefly: EMSA.

The target of data set [2] is T1, HY5. In words: competition.

B1: PAP8 promoter box probe (oP8Box) (dsDNA)
DNA 1: GGATACCAAAAATGACGCTCTTAATTATTTCC
DNA 2: GGAAATAATTAAGAGCGTCATTTTTGGTATCC
Regarding B1, the binding result in the data set with HY5 [1] is “binds”.

B2: G-box cold competitor (GbH5) (dsDNA)
DNA 1: GTTCTAGTGTATCAGACACGTGTCGACAAACTGGTGG
DNA 2: CCACCAGTTTGTCGACACGTGTCTGATACACTAGAA
B2: the binding result with HY5 [2] is reported as “binds”.

These data come from paper doi:10.1101/2020.03.10.985002.
